Measurements taken from US8318473B2, “Biofuel production” (Bio Architecture Lab, Inc., priority 2007, dated 2012).

Experiments:
[1] = In vitro pyruvate formation from alginate with purified enzymes; conditions: ~5 ug purified enzyme with Atu3025, UxuA, KdgK, KdgA; 1% alginate or ~0.5% mannuronate; over night; FIG. 6B, 6C
Protocol: The reaction mixture contained 1% alginate or ˜0.5% mannuronate, ˜5 ug of purified Atu3026 (ADH12) or Atu3027 (ADH11), and ˜5 ug of purified oligoalginate lyase (Atu3025), UxuA, KdgK, and KdgA, 2 mM of ATP, and 0.6 mM of NADPH in 20 mM Tris-HCl pH7.0. The reaction was carried out over night and the pyruvate formation was monitored by the pyruvate assay kit (BioVision, Inc).

[2] = NADH/NADPH production assay, oxidation of 4-octanol by secondary alcohol dehydrogenases; type: biochemical; conditions: 30° C.; for oxidation of 4-octanol as measured by NADPH production: in the presence of NADP+, FIG. 30B
Protocol: […] consumption and production assays were performed using a THERMOmax microplate reader in the kinetic mode, monitoring the NADPH absorbance peak at 340 nm until the reaction reached equilibrium. […] These reaction conditions are found in Table 4 below.

[3] = NADPH dependent D-mannuronate hydrogenation assay (D-mannuronate hydrogenase); type: biochemical; conditions: E. coli cell lysate containing each ADH; NADPH consumption at 340 nm for 30 min; FIG. 7B
Protocol: (§1) To identify D-mannuronate hydrogenase, a NADPH dependent D-mannuronate hydrogenation assay was performed. 20 μl of prepared cell lysate containing each ADH was added to 160 μl of D-mannuronate solution prepared in the above section. 20 μl of 2.5 mg/ml of NADPH solution (20 mM Tris-HCl, pH 8.0) was added to initiate the hydrogenation reaction. The consumption of NADPH was monitored an absorbance at 340 nm for 30 min using the kinetic mode of ThermoMAX 96 well plate reader (Molecular Devises). E. coli cell lysate containing alcohol dehydrogenase (ADH) 10 lacking a portion of N-terminal domain was used in a control reaction mixture.

[4] = NADPH dependent DEHU hydrogenation assay (DEHU hydrogenase); type: biochemical; conditions: E. coli cell lysate containing each ADH; NADPH consumption at 340 nm for 30 min; FIG. 7A
Protocol: as §1, with “identify DEHU” for “identify D-mannuronate”, “dependent DEHU” for “dependent D-mannuronate”, “of 20-fold deluted DEHU” for “of D-mannuronate”, “hydrogenation reaction, as a preliminary study using cell Lysate of A. tumefaciens C58 have shown that DEHU hydrogenation requires NADPH as a co-factor.” for “hydrogenation reaction.”

B1: Atu3026: alcohol dehydrogenase isolated from Agrobacterium tumefaciens C58, polypeptide SEQ ID NO: 92 (protein)
chain: MQRFTNRTIVVAGAGRDIGRACAIRFAQEGANVVLTYNGAAEGAATAVAEIEKLGRSALAIKADLTNAAEVEAAISAAADKFGEIHGLVHVAGGLIARKTIAEMDEAFWHQVLDVNLTSLFLTAKTALPKMAKGGAIVTFSSQAGRDGGGPGALAYATSKGAVMTFTRGLAKEVGPKIRVNAVCPGMISTTFHDTFTKPEVRERVAGATSLKREGSSEDVAGLVAFLASDDAAYVTGACYDINGGVLFS
modifications: Agrobacterium tumefaciens C58
- DEHU hydrogenase and mannuronate hydrogenase reactions in pyruvate formation from alginate [1]: capable of catalyzing both DEHU hydrogenase and mannuronate hydrogenase reactions

B2: 2ADH-5: secondary alcohol dehydrogenase isolated from Pseudomonas putida KT2440, SEQ ID NO: 118 (protein)
chain: MSKQLTLEGKVALVQGGSRGIGAAIVRRLAREGAQVAFTYVSSAGPAEELAREITENGGKALALRADSADAAAVQLAVDDTEKALGRLDILVNNAGVLAVAPVTEFDLADFDHMLAVNVRSVFVASQAAARYMGQGGRIINIGSTNAERMPFAGGAPYAMSKSALVGLTRGMARDLGPQGITVNNVQPGPVDTDMNPASGEFAESLIPLMAIGRYGEPEEIASFVAYLAGPEAGYITGASLTVDGGFAA
modifications: Pseudomonas putida KT2440
- oxidation of 4-octanol as measured by NADPH production [2]: catalyze the oxidation of 4-octanol

B3: 2ADH-10: secondary alcohol dehydrogenase isolated from Pseudomonas putida KT2440, SEQ ID NO: 128 (protein)
chain: MSKTHLFDLDGKIAFVSGASRGIGEAIAHLLAQQGAHVIVSSRKLDGCQQVADAIIAAGGKATAVACHIGELEQIQQVFAGIREQFGRLDVLVNNAATNPQFCNVLDTDPGAFQKTVDVNIRGYFFMSVEAGKLMRENGGGSIINVASINGVSPGLFQGIYSVTKAAVINMTKVFAKECAPFGIRCNALLPGLTDTKFASALVKNEAILNAALQQIPLKRVADPKEMAGAVLYLASDASSYTTGTTLNVDGGFLS
modifications: Pseudomonas putida KT2440
- oxidation of 4-octanol as measured by NADPH production [2]: catalyze the oxidation of 4-octanol

B4: ADH9: alcohol dehydrogenase isolated from Agrobacterium tumefaciens C58, polypeptide SEQ ID NO: 86 (protein)
chain: MKAIVAHGAKDVRIEDRPEEKPGPGEVRLRLARGGICGSDLHYYNHGGFGAVRLREPMVLGHEVSAVIEELGEGVEGLKIGGLVAVSPSRPCRTCRFCQEGLHNQCLNMRFYGSAMPFPHIQGAFREILVADALQCVPADGLSAGEAAMAEPLAVTLHATRRAGDLLGKRVLVTGCGPIGILSILAARRAGAAEIVATDLSDFTLGKAREAGADRVINSKDEPDALAAYGANKGTFDILYECSGAAVALAGGITALRPRGIIVQLGLGGDMSLPMMAITAKELDLRGSFRFHEEFATGVELMRKGLIDVKPFITQTVDLADAISAFEFASDRSRAMKVQIAFS
modifications: Agrobacterium tumefaciens C58
- mannuronate hydrogenase activity [3]: significant mannuronate hydrogenase activity

B5: 2ADH-8: secondary alcohol dehydrogenase isolated from Pseudomonas putida KT2440, SEQ ID NO: 124 (protein)
chain: MSLQGKVALVTGASRGIGQAIALELGRQGATVIGTATSASGAERIAATLKEHGITGTGMELNVTSAESVEAVLAAIGEQFGAPAILVNNAGITRDNLMLRMKDDEWFDVIDTNLNSLYRLSKGVLRGMTKARWGRIISIGSVVGAMGNAGQANYAAAKAGLEGFSRALAREVGSRGITVNSVTPGFIDTDMTRELPEAQREALQTQIPLGRLGQADEIAKVVSFLASDGAAYVTGATVPVNGGMYM
modifications: Pseudomonas putida KT2440
- oxidation of 4-octanol as measured by NADPH production [2]: catalyze the oxidation of 4-octanol

B6: ADH3: alcohol dehydrogenase isolated from Agrobacterium tumefaciens C58, polypeptide SEQ ID NO: 74 (protein)
chain: MTKTMKAAVVRAFGKPLTIEEVAIPDPGPGEILINYKATGVCHTDLHAATGDWPVKPNPPFIPGHEGAGYVAKIGAGVTGIKEGDRAGTPWLYTACGCCIPCRTGWETLCPSQKNSGYSVNGSFAEYGLADPKFVGRLPDNLDFGPAAPVLCAGVTVYKGLKETEVRPGEWVVISGIGGLGHMAVQYAKAMGMHVVAADIFDDKLALAKKLGADVVVNGRAPDAVEQVQKATGGVHGALVTAVSPKAMEQAYGFLRSKGTMALVGLPPGFISIPVFDTVLKRITVRGSIVGTRQDLEEALTFAGEGKVAAHFSWDKLENINDIFHRMEEGKIDGRIVVDLAA
modifications: Agrobacterium tumefaciens C58
- mannuronate hydrogenase activity [3]: significant mannuronate hydrogenase activity

B7: ADH1: alcohol dehydrogenase isolated from Agrobacterium tumefaciens C58, polypeptide SEQ ID NO: 70 (protein)
chain: MFTTSAYACDDGSSPMKLATIRRRDPGPRDVEIEIEFCGVCHSDIHTARSEWPGSLYPCVPGHEIVGRVGRVGAQVTRFKTGDRVGVGCIVDSCRECASCAEGLEQYCENGMTGTYNSPDKAMGGGAHTLGGYSAHVVVDDRYVLNIPEGLDPAAAAPLLCAGITTYSPLRHWNAGPGKRVGVVGLGGLGHMAVKLANAMGATVVMITTSPGKAEDAKKLGAHEVIISRDAEQMKKATSSLDLIIDAVAADHDIDAYLALLKRDGALVQVGAPEKPLSVMAFSLIPGRKTFAGSMIGGIPETQEMLDFCAEKGIAGEIEMIDIDQINDAYERMIKSDVRYRFVIDMKSLPRQKAA
modifications: Agrobacterium tumefaciens C58
- DEHU hydrogenase activity [4]: significant DEHU hydrogenase activity

B8: ADH2: alcohol dehydrogenase isolated from Agrobacterium tumefaciens C58, polypeptide SEQ ID NO: 72 (protein)
chain: MAIARGYAATDASKPLTPFTFERREPNDDDVVIDIKYAGICHSDIHTVRNEWHNAVYPIVPGHEIAGVVRAVGSKVTRFKVGDHVGVGCFVDSCVGCATRDVDNEQYMPGLVQTYNSVERDGKSATQGGYSDHIVVREDYVLSIPDNLPLDASAPLLCAGITLYSPLQHWNAGPGKKVAIVGMGGLGHMGVKIGSAMGADITVLSQTLSKKEDGLKLGAKEYYATSDASTFEKLAGTFDLILCTVSAEIDWNAYLNLLKVNGTMVLLGVPEHAIPVHAFSVIPARRSLAGSMIGSIKETQEMLDFCGKHDIVSEIETIGIKDVNEAYERVLKSDVRYRFVIDMASLDA
modifications: Agrobacterium tumefaciens C58
- DEHU hydrogenase activity [4]: significant DEHU hydrogenase activity

B9: ADH4: alcohol dehydrogenase isolated from Agrobacterium tumefaciens C58, polypeptide SEQ ID NO: 76 (protein)
chain: MTGANQPWEVQEVPVPKAEPGLVLVKIHASGMCYTDVWATQGAGGDIYPQTPGHEVVGEIIEVGAGVHTRKVGDRVGTTWVQSSCGRCSYCRQNRPLTGQTAMNCDSPRTTGFATQGGHAEYIAISAEGTVLLPDGLDYTDAAPMMCAGYTTWSGLRDAEPKPGDRIAVLGIGGLGHVAVQFSKALGFETIAITHSPDKHKLATDLGADIVVADGKELLEAGGADVLLVTTNDFDTAEKAMAGVRPDGRIVLCALDFSKPFSIPSDGKPFHMMRQRVVGSTHGGQHYLAEILDLAAKGKVKPIVETFALEQATEAYERLSTGKMRFRGVFLPHGA
modifications: Agrobacterium tumefaciens C58
- mannuronate hydrogenase activity [3]: significant mannuronate hydrogenase activity

B10: 2ADH-2: secondary alcohol dehydrogenase isolated from Pseudomonas putida KT2440, SEQ ID NO: 112 (protein)
chain: MSMTFSGQVALVTGAGAGIGRATALAFAHEGMKVVVADLDPVGGEATVAQIHAAGGEALFIACDVTRDAEVRQLHERLMAAYGRLDYAFNNAGIEIEQHRLAEGSEAEFDAIMGVNVKGVWLCMKYQLPLLLAQGGGAIVNTASVAGLGAAPKMSIYSASKHAVIGLTKSAAIEYAKKGIRVNAVCPAVIDTDMFRRAYQADPRKAEFAAAMHPVGRIGKVEEIASAVLYLCSDGAAFTTGHCLTVDGGATAI
modifications: Pseudomonas putida KT2440
- oxidation of 4-octanol as measured by NADH production ([2]; in the presence of NAD+, FIG. 30A): catalyzes the oxidation of 4-octanol
